Publication PMC6926464, “Gating control of the cardiac sodium channel Nav1.5 by its β3-subunit involves distinct roles for a transmembrane glutamic acid and the extracellular domain” (The Journal of Biological Chemistry, 2019)
Where “and” joins values, the source holds several entries; their conditions need not be identical. Identical values can stand only once.

Target: the molecule itself
Test: cross-linking; HEK293F cells singly transfected with EGFP-tagged β3 constructs; lysate (Hanks' balanced salt solution, 1% Triton X-100, 0.2% SDS, 0.5% sodium deoxycholate) incubated with BS3 (5 mM) for 1 h at 4 °C, quenched with glycine; SDS-PAGE and anti-GFP Western blot

Protein | stoichiometry N
full-length WT β3-subunit with C-terminal EGFP tag (natural protein, human, UniProt Q9NY72 23-215, looked up, voltage-gated sodium channel auxiliary β3-subunit, full-length; glycosylated (multiple bands on SDS-PAGE); also called WT-β3-EGFP; FL β3-EGFP; source: HEK293F, transfected (pcDNA3 WT-β3-EGFP), in lysate; not shown: EGFP, C-terminal, kept) FPVCVEVPSETEAVQGNPMKLRCISCMKREEVEATTVVEWFYRPEGGKDFLIYEYRNGHQEVESPFQGRLQWNGSKDLQDVSITVLNVTLNDSGLYTCNVSREFEFEAHRPFVKTTRLIPLRVTEEAGEDFTSVVSEIMMYILLVFLTLWLLIEMIYCYRKVSKAEEAAQENASDYLAIPSENKENSAVPVEE | 2 and 3
full-length β3-subunit E176K with C-terminal EGFP tag (natural protein, human, UniProt Q9NY72 23-215, looked up, voltage-gated sodium channel auxiliary β3-subunit, full-length, with E176K in the transmembrane region; residues numbered from the start codon of the cDNA; Made by site-directed mutagenesis of WT-β3-EGFP; also called β3-E176K-EGFP; E176K-EGFP; source: HEK293F, transfected, in lysate; not shown: EGFP, C-terminal, kept) FPVCVEVPSETEAVQGNPMKLRCISCMKREEVEATTVVEWFYRPEGGKDFLIYEYRNGHQEVESPFQGRLQWNGSKDLQDVSITVLNVTLNDSGLYTCNVSREFEFEAHRPFVKTTRLIPLRVTEEAGEDFTSVVSEIMMYILLVFLTLWLLIKMIYCYRKVSKAEEAAQENASDYLAIPSENKENSAVPVEE | 2 and 3
